B1: library; numbered along this chain (parent)
chain: MAAAAAAAAEQQSSNGPVKKSMREKAVERRSVNKEHNSNFKAGYIPIDEDRLHKTGLRGRKGNLAICVIILLFILAVINLIITLVIWAVIRIGPNGCDSMEFHESGLLRFKQVSDMGVIHPLYKSTVGGRRNENLVITGNNQPIVFQQGTTKLSVENNKTSITSDIGMQFFDPRTQNILFSTDYETHEFHLPSGVKSLNVQKASTERITSNATSDLNIKVDGRAIVRGNEGVFIMGKTIEFHMGGNMELKAENSIILNGSVMVSTTRLPSSSSGDQLGSGDWVRYKLCMCADGTLFKVQVTSQNMGCQISDNPCGNTH

Variants of: B1
Experiment: SGCB cell-surface expression functional score (HA stain, bin4 vs bin1, normalised to synonymous) (log10 ratio); higher = more cell-surface SGCB (functional)
Description: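 Deep mutational scan of full-length human SGCB (YFP-SGCB-HA, NNN codon sublibraries A-F) delivered by lentivirus at low MOI into ADG-HEK293 cells stably expressing SGCA, SGCD and SGCG. YFP-positive cells were stained for surface HA on unpermeabilized cells and FACS-sorted into bins. The functional score is log10(frequency in high bin 4 / frequency in low bin 1), normalised per chunk so that synonymous variants have mean 0 and SD 0.5. Scores are the median over codons and over duplicate biological replicates; scores below -0.5 are called non-functional. Scale: negative means deleterious.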

Row | Variant | SGCB cell-surface expression functional score (log10)
1 | MAAAAAAAAEQQSSNGPVKKSMREKAVERRSVNKEHNSNFKAGYIPIDEDRLHKRGLRGRKGNLAICVIILLFILAVINLIITLVIWAVIRIGPNGCDSMEFHESGLLRFKQVSDMGVIHPLYKSTVGGRRNENLVITGNNQPIVFQQGTTKLSVENNKTSITSDIGMQFFDPRTQNILFSTDYETHEFHLPSGVKSLNVQKASTERITSNATSDLNIKVDGRAIVRGNEGVFIMGKTIEFHMGGNMELKAENSIILNGSVMVSTTRLPSSSSGDQLGSGDWVRYKLCMCADGTLFKVQVTSQNMGCQISDNPCGNTH [T55R] | 0.21
2 | MAAAAAAAAEQQSSNGPVKKSMREKAVERRSVNKEHNSNFKAGYIPIDEDRLHKSGLRGRKGNLAICVIILLFILAVINLIITLVIWAVIRIGPNGCDSMEFHESGLLRFKQVSDMGVIHPLYKSTVGGRRNENLVITGNNQPIVFQQGTTKLSVENNKTSITSDIGMQFFDPRTQNILFSTDYETHEFHLPSGVKSLNVQKASTERITSNATSDLNIKVDGRAIVRGNEGVFIMGKTIEFHMGGNMELKAENSIILNGSVMVSTTRLPSSSSGDQLGSGDWVRYKLCMCADGTLFKVQVTSQNMGCQISDNPCGNTH [T55S] | 0.22
3 | MAAAAAAAAEQQSSNGPVKKSMREKAVERRSVNKEHNSNFKAGYIPIDEDRLHKVGLRGRKGNLAICVIILLFILAVINLIITLVIWAVIRIGPNGCDSMEFHESGLLRFKQVSDMGVIHPLYKSTVGGRRNENLVITGNNQPIVFQQGTTKLSVENNKTSITSDIGMQFFDPRTQNILFSTDYETHEFHLPSGVKSLNVQKASTERITSNATSDLNIKVDGRAIVRGNEGVFIMGKTIEFHMGGNMELKAENSIILNGSVMVSTTRLPSSSSGDQLGSGDWVRYKLCMCADGTLFKVQVTSQNMGCQISDNPCGNTH [T55V] | -0.07
4 | MAAAAAAAAEQQSSNGPVKKSMREKAVERRSVNKEHNSNFKAGYIPIDEDRLHKWGLRGRKGNLAICVIILLFILAVINLIITLVIWAVIRIGPNGCDSMEFHESGLLRFKQVSDMGVIHPLYKSTVGGRRNENLVITGNNQPIVFQQGTTKLSVENNKTSITSDIGMQFFDPRTQNILFSTDYETHEFHLPSGVKSLNVQKASTERITSNATSDLNIKVDGRAIVRGNEGVFIMGKTIEFHMGGNMELKAENSIILNGSVMVSTTRLPSSSSGDQLGSGDWVRYKLCMCADGTLFKVQVTSQNMGCQISDNPCGNTH [T55W] | -0.27
5 | MAAAAAAAAEQQSSNGPVKKSMREKAVERRSVNKEHNSNFKAGYIPIDEDRLHKYGLRGRKGNLAICVIILLFILAVINLIITLVIWAVIRIGPNGCDSMEFHESGLLRFKQVSDMGVIHPLYKSTVGGRRNENLVITGNNQPIVFQQGTTKLSVENNKTSITSDIGMQFFDPRTQNILFSTDYETHEFHLPSGVKSLNVQKASTERITSNATSDLNIKVDGRAIVRGNEGVFIMGKTIEFHMGGNMELKAENSIILNGSVMVSTTRLPSSSSGDQLGSGDWVRYKLCMCADGTLFKVQVTSQNMGCQISDNPCGNTH [T55Y] | 0.15
6 | MAAAAAAAAEQQSSNGPVKKSMREKAVERRSVNKEHNSNFKAGYIPIDEDRLHKTELRGRKGNLAICVIILLFILAVINLIITLVIWAVIRIGPNGCDSMEFHESGLLRFKQVSDMGVIHPLYKSTVGGRRNENLVITGNNQPIVFQQGTTKLSVENNKTSITSDIGMQFFDPRTQNILFSTDYETHEFHLPSGVKSLNVQKASTERITSNATSDLNIKVDGRAIVRGNEGVFIMGKTIEFHMGGNMELKAENSIILNGSVMVSTTRLPSSSSGDQLGSGDWVRYKLCMCADGTLFKVQVTSQNMGCQISDNPCGNTH [G56E] | -0.3
7 | MAAAAAAAAEQQSSNGPVKKSMREKAVERRSVNKEHNSNFKAGYIPIDEDRLHKTDLRGRKGNLAICVIILLFILAVINLIITLVIWAVIRIGPNGCDSMEFHESGLLRFKQVSDMGVIHPLYKSTVGGRRNENLVITGNNQPIVFQQGTTKLSVENNKTSITSDIGMQFFDPRTQNILFSTDYETHEFHLPSGVKSLNVQKASTERITSNATSDLNIKVDGRAIVRGNEGVFIMGKTIEFHMGGNMELKAENSIILNGSVMVSTTRLPSSSSGDQLGSGDWVRYKLCMCADGTLFKVQVTSQNMGCQISDNPCGNTH [G56D] | -0.5
8 | MAAAAAAAAEQQSSNGPVKKSMREKAVERRSVNKEHNSNFKAGYIPIDEDRLHKTALRGRKGNLAICVIILLFILAVINLIITLVIWAVIRIGPNGCDSMEFHESGLLRFKQVSDMGVIHPLYKSTVGGRRNENLVITGNNQPIVFQQGTTKLSVENNKTSITSDIGMQFFDPRTQNILFSTDYETHEFHLPSGVKSLNVQKASTERITSNATSDLNIKVDGRAIVRGNEGVFIMGKTIEFHMGGNMELKAENSIILNGSVMVSTTRLPSSSSGDQLGSGDWVRYKLCMCADGTLFKVQVTSQNMGCQISDNPCGNTH [G56A] | 0.21
9 | MAAAAAAAAEQQSSNGPVKKSMREKAVERRSVNKEHNSNFKAGYIPIDEDRLHKTCLRGRKGNLAICVIILLFILAVINLIITLVIWAVIRIGPNGCDSMEFHESGLLRFKQVSDMGVIHPLYKSTVGGRRNENLVITGNNQPIVFQQGTTKLSVENNKTSITSDIGMQFFDPRTQNILFSTDYETHEFHLPSGVKSLNVQKASTERITSNATSDLNIKVDGRAIVRGNEGVFIMGKTIEFHMGGNMELKAENSIILNGSVMVSTTRLPSSSSGDQLGSGDWVRYKLCMCADGTLFKVQVTSQNMGCQISDNPCGNTH [G56C] | -0.17
10 | MAAAAAAAAEQQSSNGPVKKSMREKAVERRSVNKEHNSNFKAGYIPIDEDRLHKTFLRGRKGNLAICVIILLFILAVINLIITLVIWAVIRIGPNGCDSMEFHESGLLRFKQVSDMGVIHPLYKSTVGGRRNENLVITGNNQPIVFQQGTTKLSVENNKTSITSDIGMQFFDPRTQNILFSTDYETHEFHLPSGVKSLNVQKASTERITSNATSDLNIKVDGRAIVRGNEGVFIMGKTIEFHMGGNMELKAENSIILNGSVMVSTTRLPSSSSGDQLGSGDWVRYKLCMCADGTLFKVQVTSQNMGCQISDNPCGNTH [G56F] | 0.28
